Test results taken from patent publication US20260232769A1 (WUXI BIOLOGICS IRELAND, published 2026).
Positions count from the first letter of the chain named. Read-outs that look alike come from different tables or passages of the source.

B1: W3XX115-T2U3.E44-6.uIgG4V322 (Fc fusion)
chain: APTSSSTKKTQLQLEHLLLDLQMILNGINNYKNPKLTRMLTFKFYMPKKATELKHLQCLEEELKPLEEVLNLAQSKNFHLRPRDLISNINVIVLELKGSETTFMCEYADETATIVEFLNRWITFCQSIIESKYGPPCPPCPAPEAAGGPSVFLFPPKPKDTLMISRTPEVTCVVVDVSQEDPEVQFNWYVDGVEVHNAKTKPREEQFNSTYRVVSVLTVLHQDWLNGKEYKCKVSNKGLPSSIEKTISKAKGQPREPQVYTLPPCQEEMTKNQVSLWCLVKGFYPSDIAVEWESNGQPENNYKTTPPVLDSDGSFFLYSRLTVDKSRWQEGNVFSCSVMHEALHNHYTQKSLSLSLGK
heavy: QVQLVQSGAEVKKPGSSVKVSCKASGFTFTTYYISWVRQAPGQGLEYLGYINMGSGGTNYNEKFKGRVTITADKSTSTAYMELSSLRSEDTAVYYCAIIGYFDYWGQGTMVTVSSASTKGPSVFPLAPCSRSTSESTAALGCLVKDYFPEPVTVSWNSGALTSGVHTFPAVLQSSGLYSLSSVVTVPSSSLGTKTYTCNVDHKPSNTKVDKRVESKYGPPCPPCPAPEAAGGPSVFLFPPKPKDTLMISRTPEVTCVVVDVSQEDPEVQFNWYVDGVEVHNAKTKPREEQFNSTYRVVSVLTVLHQDWLNGKEYKCKVSNKGLPSSIEKTISKAKGQPREPQVCTLPPSQEEMTKNQVSLSCAVKGFYPSDIAVEWESNGQPENNYKTTPPVLDSDGSFFLVSRLTVDKSRWQEGNVFSCSVMHEALHNHYTQKSLSLSLGK
light: DVVMTQSPLSLPVTLGQPASISCRSSQSLLDSDGGTYLYWFQQRPGQSPRRLIYLVSTLGSGVPDRFSGSGSGTDFTLKISRVEAEDVGVYYCMQLTHWPYTFGQGTKLEIKRTVAAPSVFIFPPSDEQLKSGTASVVCLLNNFYPREAKVQWKVDNALQSGNSQESVTEQDSKDSTYSLSSTLTLSKADYEKHKVYACEVTHQGLSSPVTKSFNRGEC
B2: W3XX115-T2U3.E44-26.uIgG4V322 (Fc fusion)
chain: B1 chain with I129L
heavy: B1 heavy
light: B1 light
B3: W3XX115-T2U0.E44-48.uIgG4V322 (Fc fusion)
chain: APTSSSTKKTQLQLEHLLLDLQMILNGINNYKNPKLTRMLTFKFYMPKKATELKHLQCLEEELKPLEEVLNLAQSKNFHLRPRDLISNINVIVLELKGSETTFMCEYADETATIVEFLNRWYTFCQSILESKYGPPCPPCPAPEAAGGPSVFLFPPKPKDTLMISRTPEVTCVVVDVSQEDPEVQFNWYVDGVEVHNAKTKPREEQFNSTYRVVSVLTVLHQDWLNGKEYKCKVSNKGLPSSIEKTISKAKGQPREPQVYTLPPCQEEMTKNQVSLWCLVKGFYPSDIAVEWESNGQPENNYKTTPPVLDSDGSFFLYSRLTVDKSRWQEGNVFSCSVMHEALHNHYTQKSLSLSLG
heavy: EIQLQQSGPELVKPGASVKVSCKASGYSFTDYNMYWVKQSHGESLEWIGYIDPYNGGTRYNQKFKGKATLTVDKSSSTAFMHLNSLTSEDSAVYYCARNGHWDGAWFAYWGQGTLVTVSAASTKGPSVFPLAPCSRSTSESTAALGCLVKDYFPEPVTVSWNSGALTSGVHTFPAVLQSSGLYSLSSVVTVPSSSLGTKTYTCNVDHKPSNTKVDKRVESKYGPPCPPCPAPEAAGGPSVFLFPPKPKDTLMISRTPEVTCVVVDVSQEDPEVQFNWYVDGVEVHNAKTKPREEQFNSTYRVVSVLTVLHQDWLNGKEYKCKVSNKGLPSSIEKTISKAKGQPREPQVCTLPPSQEEMTKNQVSLSCAVKGFYPSDIAVEWESNGQPENNYKTTPPVLDSDGSFFLVSRLTVDKSRWQEGNVFSCSVMHEALHNHYTQKSLSLSLG
light: DIQMNQSPSSLSASLGDTITITCHASQNINVWLSWYQQKPGNIPKLLIYKASNLHTGVPSRFSGSRSGTGFTLTISSLQPEDIATYYCHQGQSYPFTFGSGTKLEIKRTVAAPSVFIFPPSDEQLKSGTASVVCLLNNFYPREAKVQWKVDNALQSGNSQESVTEQDSKDSTYSLSSTLTLSKADYEKHKVYACEVTHQGLSSPVTKSFNRGEC
B4: W3XX115-T2U0.E44-49.uIgG4V322 (Fc fusion)
chain: B3 chain with K32D, Y122I
heavy: B3 heavy
light: B3 light
B5: W3XX115-BMK8 (Fc fusion, part only; not given: Fab heavy and light chains, part only)
chain: APTSSSTKKTQLQLEHLRLDLEMILNGINNYKNPKLTRMLTFKFYMPKKATELKHLQCLEEELKPLEEVLNLAQSKNFHLRPRDLISNINVIVLELKGSETTFMCEYADETATIVEFLNRWITFCKSIISTLTESKYGPPCPPCPAPEFLGGPSVFLFPPKPKDTLMISRTPEVTCVVVDVSQEDPEVQFNWYVDGVEVHNAKTKPREEQFNSTYRVVSVLTVLHQDWLNGKEYKCKVSNKGLPSSIEKTISKAKGQPREPQVYTLPPCQEEMTKNQVSLWCLVKGFYPSDIAVEWESNGQPENNYKTTPPVLDSDGSFFLYSRLTVDKSRWQEGNVFSCSVMHEALHNHYTQKSLSLSLG
B6: W3XX115-T3U0.E44-1.uIgG4V322 (Fc fusion)
chain: B5 chain with R18L, E22Q, F42V, Y45A, L72G, K126Q, F149A, L150A
heavy: B3 heavy
light: B3 light

Columns and labels:
Test in all cases: cell-based or functional assay
[1] = target: T1, IL-2Rα (CD25) on human activated CD8+ T cells (human, UniProt P01589 22-272)
T1 sequence (looked up): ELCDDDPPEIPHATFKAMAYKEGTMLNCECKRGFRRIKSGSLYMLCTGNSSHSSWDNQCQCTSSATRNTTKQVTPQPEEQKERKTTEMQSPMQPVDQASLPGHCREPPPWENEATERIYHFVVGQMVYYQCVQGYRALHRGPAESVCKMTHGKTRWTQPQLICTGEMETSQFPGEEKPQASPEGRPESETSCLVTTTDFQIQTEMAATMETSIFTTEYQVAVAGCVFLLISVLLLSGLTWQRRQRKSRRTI

[2] = target: PD-1 (on CHO-PD1 engineered cell line; on activated CD8+ T cells) (UniProt Q15116 25-288, limits assumed)
[3] = target: T2, IL-2Rβ/γc complex (intermediate affinity receptor) on primary human CD8+ T cells (human, UniProt P14784 27-551; P31785 23-369)
T2 sequence (looked up) 1: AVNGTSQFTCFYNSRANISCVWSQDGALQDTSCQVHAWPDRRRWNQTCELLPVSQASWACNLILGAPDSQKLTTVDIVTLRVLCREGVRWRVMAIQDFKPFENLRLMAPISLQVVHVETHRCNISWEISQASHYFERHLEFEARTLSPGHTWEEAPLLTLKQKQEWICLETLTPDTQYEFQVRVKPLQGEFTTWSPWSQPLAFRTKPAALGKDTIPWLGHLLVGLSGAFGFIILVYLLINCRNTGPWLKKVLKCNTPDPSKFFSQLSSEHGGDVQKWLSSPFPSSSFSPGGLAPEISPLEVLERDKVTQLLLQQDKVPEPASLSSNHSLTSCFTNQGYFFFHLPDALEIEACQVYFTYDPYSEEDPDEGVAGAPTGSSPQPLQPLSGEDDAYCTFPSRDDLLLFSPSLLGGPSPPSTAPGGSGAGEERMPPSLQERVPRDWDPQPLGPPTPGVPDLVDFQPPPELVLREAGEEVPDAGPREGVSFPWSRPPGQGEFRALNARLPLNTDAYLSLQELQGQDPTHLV
T2 sequence (looked up) 2: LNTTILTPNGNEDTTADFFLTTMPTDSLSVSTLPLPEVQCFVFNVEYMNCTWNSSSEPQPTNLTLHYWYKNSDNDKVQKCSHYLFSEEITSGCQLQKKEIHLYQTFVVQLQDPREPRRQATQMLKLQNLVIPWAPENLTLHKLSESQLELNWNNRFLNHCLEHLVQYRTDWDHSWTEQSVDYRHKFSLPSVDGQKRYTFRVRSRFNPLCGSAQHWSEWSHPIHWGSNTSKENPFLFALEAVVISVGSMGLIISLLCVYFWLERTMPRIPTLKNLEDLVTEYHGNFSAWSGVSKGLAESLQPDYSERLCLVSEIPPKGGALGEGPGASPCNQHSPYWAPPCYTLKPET

[4] = target: T3, IL-2Rα/β/γc complex (high affinity receptor) on human activated CD8+ T cells (human, UniProt P01589 22-272; P14784 27-551; P31785 23-369)
T3 sequence (looked up) 1: T1 sequence (looked up)
T3 sequence (looked up) 2: T2 sequence (looked up) 1
T3 sequence (looked up) 3: T2 sequence (looked up) 2

[5] = target: T2, IL-2Rβ/γc complex (intermediate …); remark: listed apart in the source
[6] = target: T3, IL-2Rα/β/γc complex (high affinity …); remark: listed apart in the source
[7] = target: IL-2Rα/β/γc complex (high affinity receptor) on human activated CD8+ T cells (human) (UniProt P01589)
[8] = target: T3, IL-2Rα/β/γc complex (high affinity …); remark: listed apart in the source

Row | PD-1+/PD-1- ratio (pSTAT5 potency, activated versus primary CD8+ T) [1] [fold] | PD-1+/PD-1- ratio (pSTAT5 potency, activated versus primary CD8+ T) [2] [fold] | Potency reduction, pSTAT5, human primary CD8+ T [3] [fold] | pSTAT5 EC50, human primary CD8+ T [3] [nM] | Potency reduction, pSTAT5, human activated CD8+ T (CD25 positive and PD-1 positive) [4] [fold] | pSTAT5 EC50, human activated CD8+ T (CD25 positive and PD-1 positive) [4] [pM] | Potency reduction, pSTAT5, human primary CD8+ T [5] [fold] | pSTAT5 EC50, human primary CD8+ T [5] [nM] | Potency reduction, pSTAT5, human activated CD8+ T [6] [fold] | pSTAT5 EC50, human activated CD8+ T [6] [nM] | also measured | Binder
1 | 3470 | 3470 | 13.4 | 191 | 2 | 55 |  |  |  |  |  | B1
2 | 4200 | 4200 | 25.9 | 370 | 3.2 | 88 |  |  |  |  |  | B2
3 |  |  |  |  |  |  | 2.7 | 300 | 14.7 | 0.25 |  | B3
4 |  |  |  |  |  |  | 3.8 | 425 | 22.2 | 0.38 |  | B4
5 |  |  |  |  |  |  |  |  |  |  | Potency reduction, pSTAT5, human activated CD8+ T [7]: 7.2 fold; pSTAT5 EC50, human activated CD8+ T [7]: 0.12 nM | B5
6 |  |  |  |  |  |  |  |  |  |  | Potency reduction, pSTAT5, human activated CD8+ T [8]: 12.4 fold | B6
